The values below are quoted from earlier work in article PMC3128382.

This data set has as its target TbpA (Neisseria gonorrhoeae) (UniProt Q01996).
Sequence of UniProt Q01996 (Q01996 25-915): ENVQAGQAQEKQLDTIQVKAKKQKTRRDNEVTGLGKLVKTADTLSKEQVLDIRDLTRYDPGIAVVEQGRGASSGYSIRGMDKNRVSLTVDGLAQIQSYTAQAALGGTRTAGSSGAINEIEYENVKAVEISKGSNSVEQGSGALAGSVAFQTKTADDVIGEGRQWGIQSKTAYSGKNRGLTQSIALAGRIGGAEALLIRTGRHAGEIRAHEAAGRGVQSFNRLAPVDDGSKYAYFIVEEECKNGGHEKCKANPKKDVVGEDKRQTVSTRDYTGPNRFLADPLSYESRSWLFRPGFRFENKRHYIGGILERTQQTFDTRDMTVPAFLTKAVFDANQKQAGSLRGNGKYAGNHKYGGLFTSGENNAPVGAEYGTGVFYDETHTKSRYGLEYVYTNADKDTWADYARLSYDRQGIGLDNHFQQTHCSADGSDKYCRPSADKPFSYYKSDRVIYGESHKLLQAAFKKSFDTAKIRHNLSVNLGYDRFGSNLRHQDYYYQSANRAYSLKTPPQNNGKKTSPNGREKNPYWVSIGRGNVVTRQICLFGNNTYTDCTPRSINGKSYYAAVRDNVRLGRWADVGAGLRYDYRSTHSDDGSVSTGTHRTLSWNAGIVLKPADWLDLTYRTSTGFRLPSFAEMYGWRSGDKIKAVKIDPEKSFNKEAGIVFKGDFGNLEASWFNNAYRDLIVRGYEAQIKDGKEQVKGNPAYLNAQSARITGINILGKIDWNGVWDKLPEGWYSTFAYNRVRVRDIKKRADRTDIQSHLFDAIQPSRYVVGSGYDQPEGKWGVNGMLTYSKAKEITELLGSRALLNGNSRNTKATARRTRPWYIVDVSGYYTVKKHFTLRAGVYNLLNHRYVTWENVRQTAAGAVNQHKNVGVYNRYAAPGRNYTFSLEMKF

For the substance Transferrin (from UniProt P02787), the equilibrium dissociation constant (Kd) is 10 nM.
